According to doi:10.1101/2021.07.06.451223 (bioRxiv, 2021):
Changes are numbered by the printed parent chain. In names and notes the source's numbering stands.

B1: CASQ1 S248E (amino acids 35-396) (natural protein, human, UniProt P31415 35-396, looked up)
chain: QEGLDFPEYDGVDRVINVNAKNYKNVFKKYEVLALLYHEPPEDDKASQRQFEMEELILELAAQVLEDKGVGFGLVDSEKDAAVAKKLGLTEVDSMYVFKGDEVIEYDGEFSADTIVEFLLDVLEDPVELIEGERELQAFENIEDEIKLIGYFKSKDSEHYKAFEDAAEEFHPYIPFFATFDSKVAKKLTLKLNEIDFYEAFMEEPVTIPDKPNEEEEIVNFVEEHRRSTLRKLKPESMYETWEDDMDGIHIVAFAEEADPDGFEFLETLKAVAQDNTENPDLSIIWIDPDDFPLLVPYWEKTFDIDLSAPQIGVVNVTDADSVWMEMDDEEDLPSAEELEDWLEDVLEGEINTEDDDDDDDD
B2: CASQ1 S248/369E (amino acids 35-396) (natural protein, human, UniProt P31415 35-396, looked up)
chain: B1 chain with S335E
B3: CASQ1 S369E (amino acids 35-396) (natural protein, human, UniProt P31415 35-396, looked up)
chain: B1 chain with E214S, S335E

Experiments:
crystal structure = target: the molecule itself; assay: crystal structure
turbidity assay = target: the molecule itself; assay: turbidity assay

Protein | stoichiometry N (crystal structure) | binding result (turbidity assay)
B1 | 2 | –
B2 | – | binds
B3 | – | binds
